In paper PMC4222082, “Nitrogen starvation-induced transcriptome alterations and influence of transcription regulator mutants in Mycobacterium smegmatis”:

T1: MBP-GlnR (Mycobacterium smegmatis (SMR5?)) (UniProt A0R4C4)
T1 sequence: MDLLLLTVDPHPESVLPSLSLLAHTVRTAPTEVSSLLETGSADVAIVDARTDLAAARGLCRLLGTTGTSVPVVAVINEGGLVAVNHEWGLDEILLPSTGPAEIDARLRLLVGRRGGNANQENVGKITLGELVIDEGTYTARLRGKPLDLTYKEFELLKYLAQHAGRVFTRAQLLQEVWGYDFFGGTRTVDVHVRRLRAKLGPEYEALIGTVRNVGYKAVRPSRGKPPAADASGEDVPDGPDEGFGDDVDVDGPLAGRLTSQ

T2: MBP-GlnR (Mycobacterium smegmatis, UniProt A0R4C4 1-261)
T2 sequence: T1 sequence

B1: amtB fragment 6 (dsDNA)
DNA 1: TGCGTTCACTTTCCGGAAACGCAACGGCAGCACCGGCGAAACGCCGGCAA
DNA 2: TTGCCGGCGTTTCGCCGGTGCTGCCGTTGCGTTTCCGGAAAGTGAACGCA
B2: amtB fragment 6.1 (dsDNA)
DNA 1: TGCGTTCACTTTCCGGAAACGCAAC
DNA 2: GTTGCGTTTCCGGAAAGTGAACGCA

Tests used:
[1] = target: T1, MBP-GlnR (Mycobacterium smegmatis (SMR5?)); assay: EMSA; details: GlnR: DIG Gel Shift Kit (Roche) buffer, 6% native PAGE, 0.5x TBE; AmtR: 20 mM Tris-HCl pH 7.9, 25 mM KCl, 1 mM DTT, 5 mM MgCl2, 0.5 mg/ml BSA, 5% glycerol …
[2] = target: T2, MBP-GlnR; assay: competition; 1000-fold excess vs 220 bp amtB probe; GlnR: DIG Gel Shift Kit (Roche) buffer, 6% native PAGE, 0.5x TBE; AmtR: 20 mM Tris-HCl pH 7.9, 25 mM KCl, 1 mM DTT, 5 mM MgCl2, 0.5 mg/ml BSA, 5% glycerol, 2 ug sperm DNA, 25 C 30 min; details: protein: recombinant; (pMal-c2-glnR); chain copies: 2; label: digoxigenin when used as probe
[3] = target: T2, MBP-GlnR; assay: competition; 1000-fold excess vs fragment 6 probe; GlnR: DIG Gel Shift Kit (Roche) buffer, 6% native PAGE, 0.5x TBE; AmtR: 20 mM Tris-HCl pH 7.9, 25 mM KCl, 1 mM DTT, 5 mM MgCl2, 0.5 mg/ml BSA, 5% glycerol, 2 ug sperm DNA, 25 C 30 min; details: protein: recombinant; (pMal-c2-glnR); chain copies: 2

Molecule | binding [1] | further results
GTGTGAACCTCCTTGGGAAGTGCGCCGACGGATCGGCCTCCCGATGAGATTCTGTTGCCGGCGTTTCGCCGGTGCTGCCGTTGCGTTTCCGGAAAGTGAACGCAATCCCGATCACTGTTACGCTCATGTTTCCCGCCGACAAAGCACAGGTCGTTGCACAGCCAACGCCGGCTGTAACGCCCCGCAAACACTCCCGCTGCGGCGCCGCGAACCCGACGTC (double strand) [amtB upstream] | binds | –
TGAGGGTCCTAATCCGTCCCTGAACAGGGAAATTACCGGACCATTTTTTGGTCTGGTCTGAGAATGTCGCCGACGACGTTGTGCTGCGACGCTGGCAATTGTTACCGCGCCCAGATTCGTTGGTCAACTTGGAATTACCTGTACATATGCGGGTTTGTTGCAAACATGTTTCGAAGCTGGGAGCCATGCAACGGCAGCGTAAAAATTCTCGATTTGGTCTGCTCTGGTTCGGCTTTTGGTCCACACTCTTCGACATGCCGGGACTTCCAGCTGACCACGAACTGTTCGCGCGCGCCGCAC (double strand) [msmeg_0781 upstream] | binds | –
TGCAGTATCACTACTTTCTTGTTATCCACTTGTCAGGCGTTCGCGGTCTCTGGAGTTTGCTGTGAGGTTTCCTTGAGCCCGAGGCGGGCCCGGATGACGAGGCCGATGACGAACAGTGCCGCGGTGACGATGAACGGCGCCCAGTCGACCCACGGGTCGCCCGTGCGGGGCCACAGGACGTTGACGGTCTCCACGATCACCCACACCAGCGCGAGCCACCCCGCAACGTGTCCGGCACGGCCCAGGAAGGTCGGTTCGGTGGGGTCCCAGGTGCCCCGGAGCTTGCTGATCGCCAACCCC (double strand) [msmeg_6734 upstream] | no binding | –
TTCGGTGTACCTGTGGAAGAACACCGTGGAGAAGGCACAGTCCTTCGACGTCAAGGCAATTCAGGACAACGCCGATGGCGTGAGCTTCGACGCGCCCGAGGGCAAGGTCACCATCGACGGCGAGAACCACCACATCACCAAGACCGCCCGCATCGGTGAGATCCGCCCCGACGGCCTGATCTACACGGTGTGGGAGTCCAAGGGCCCCATCGAGCCGGATCCGTACCTGAAGTCCTACCCGTGGGCCGCAGGGCTGTCGAGCTGATCAGATAGTCACACCGAGGGGGATCTGACAACCGT (double strand) [msmeg_2981 upstream] | no binding | –
B1 | – | binding result [2]: binds
B2 | – | binding result [3]: binds
